We go through 15 sequences from the DeepSol protein solubility set.

The nature of this series: soluble on expression in E. coli; label from the status in PepcDB or PDB records.
Turning to “MARLFTLSESKYYLMALDAGTGSIRAVIFDLEGNQIAVGQAEWRHLAVPDVPGSMEFDLNKNWQLACECMRQALHNAGIAPEYIAAVSACSMREGIVLYNNEGAPIWACANVDARAAREVSELKELHNNTFENEVYRATGQTLALSAIPRLLWLAHHRSDIYRQASTITMISDWLAYMLSGELAVDPSNAGTTGLLDLTTRDWKPALLDMAGLRADILSPVKETGTLLGVVSSQAAELCGLKAGTPVVVGGGDVQLGCLGLGVVRPAQTAVLGGTFWQQVVNLAAPVTDPEMNVRVNPHVIPGMVQAESISFFTGLTMRWFRDAFCAEEKLIAERLGIDTYTLLEEMASRVPPGSWGVMPIFSDRMRFKTWYHAAPSFINLSIDPDKCNKATLFRALEENAAIVSACNLQQIADFSNIHPSSLVFAGGGSKGKLWSQILADVSGLPVNIPVVKEATALGCAIAAGVGAGIFSSMAETGERLVRWERTHTPDPEKHELYQDSRDKWQAVYQDQLGLVDHGLTTSLWKAPGL”, the “soluble on expression in E. coli” value is listed as “not soluble”.
On to “ARVDQTPRIATKETGESLTINCVLRDTACALDSTNWYRTKLGSTKEQTISIGGRYSETVDEGSNSASLTIRDLRVEDSGTYKCKAYRRCAFNTGVGYKEGAGTVLTVK”, for which the “soluble on expression in E. coli” value is listed as “soluble”.
With “MLYLAELLQGKNALITGAGRGIGRAVAIALAKEGVNVGLLARSEENLKAVAKEVEAEGVKAVIATADVSSYEEVTTAIETLKNGLGSIDILINNAGISKFGKFLELDVADWEKIIQVNLMGVYYATRAALPSMIEQQSGDIINISSTAGQKGAPVTSAYSASKFGVLGLTESLAMEVRKHNIRVTALTPSTVATDMAVDLGLTDGNPDKVMQAEDIAEFIVAQLKLNKRTFIKSAGLWSTNP” the entry was “not soluble”.
In the case of “MKKILLLNGPNLNMLGKREPHIYGSQTLSDIEQHLQQSAQAQGYELDYFQANGEESLINRIHQAFQNTDFIIINPGAFTHTSVAIRDALLAVSIPFIEVHLSNVHAREPFRHHSYLSDVAKGVICGLGAKGYDYALDFAISELQKIQLGEMMNG”, the “soluble on expression in E. coli” value is given as “soluble”.
Regarding “MGSDKIHHHHHHMNKGVPLKTRAEVNAFNGSKMLKVIGLDEFVSNGICDNRHCLLLPNYNPNQRELLSLDWGAVAIQCGGIPSNLTIPVISKLEHPEVISTGDVIVLNENRVDILYRRKSTANLLFVTERCNHQCIMCSQPPKVLDDGWHFEECHQLLELIDRDIPVLGISGGEPTLQRDGFLKLLEHAKKALPSTQLHILTNGSAFEEYLYVEQIIQLGHQQIVWGIPIYGSTPQQHDYHTQVLGSFNKTMHGLYNLGHVGAQIELRVVLTRPIIENIVELSEFIARNLPFVSTVALMGLEPTGFARTNYEAVWCDLNDYQEELLEGTHVLLSSGLDTVLYNIPRCHVPKSLRSIAVQSISDWKNSTRKECEYCEEQNLCCGFFKSHTQRFSEQNVKPIQLERRSENVVRT”, the “soluble on expression in E. coli” value was “not soluble”.
Turning to “MLTGLFFGSFNPMHIGHLALANYLTEYTPIGQLWFVPSPLNPLKNTQELLPYDLRCELIEQAIRKDIRFQVLRIEELLPSPHYTIRTLRALSMLYPHHRFALLIGADNWQSFDRWKDHHRLMAKYELIIYPRFGYEVDDTTLPTGCRYIHDAPRIEISSTQIRTSILEGKDLRYWLPLPESQDVIASALQSCLSPKR”, the “soluble on expression in E. coli” value was “not soluble”.
As to “MAGRVHPRQLAFSLPHAESLSRDNFLEGPANAAGLALIDGWPEWPNRIMWLAGPEGSGKSHLAAIWAEEAGARSTTANALSAAGVPGALATGALVVEDLKAKDFDERALFHLMNLAREDGAYVLFTGRDVPAALDIELNDLRSRLRAVPVVMLLPPDDQLFRGLIVKFCADRQLTVDESVVSYLATRLERSSAAARQAVELLDSEALRLGRPVTRALAAELLRDALEHHHHHH”, the “soluble on expression in E. coli” value is “soluble”.
With “MSNSRSILSQPEWRIVDQSSLGPTFHALQSFAMDDTLCTSIGKGESAATMRSWVHHNTIVLGIQDSRLPHLEEGISFLKENNFNVIVRNSGGLAVVLDEGVLNVSLLFQETEKGIDIDLGYDTMWHLIQEMLKDYDVTIEAKEIVGSYCPGSYDLSIRDQKFAGISQRRIRGGVAVQIYLCATGSGSERAALVRDFYNLAIQGEETRFTYPEIVPSTMASLSELLDETITVQDLMMRLLKTLQQFAPKLTPSQLTIDEIPLYETNLQRIIDRNNKALGLEK” the entry was “not soluble”.
In the case of “MGSDKIHHHHHHMNLKTSIENNVHIRAVAAAADELGLETYIVGGYVRDLIMDRDNKDIDFVCLGSGIELAQKVAANMGEHVQVHIFKTFGTAMINAGDTELEFVGARKESYDFNSRKPTVESGTLEDDQLRRDFTINALAICLNKARFGELVDPFDGVSDIKRKIIKTPQDALLTFSDDPLRMIRAVRFATQLNFDIEAATFQAIATNKDRLSIVSMERISQELNKIISAPVPSYGFKLLYISGVLKDIFPEFVALHGVESIDNKSHKDNFYHTLQVLDNVAKVSDDLWLRWAAILHDIAKPLTKRFVERIGWTFHGHEDKGARMVPAIFRKLRLPLNEKMDMVAKLVRLHLRPISLVKDEVTDSAVRRLMFEAGEHFSDLMILCRADVTSKNNNKVKRYLENFDKVERKVIEVEEKDQQRNFQPVVSGEDIMKTFDIKPGKVIGDIKADLIEAILEGDVQNEYEILFPFMINLAEKKYGLVKPETH”, the “soluble on expression in E. coli” value is listed as “not soluble”.
The result for “MSRIEAVFFDCDGTLVDSEVICSRAYVTMFQEFGITLDPEEVFKRFKGVKLYEIIDIVSLEHGVTLAKTEAEHVYRAEVARLFDSAIEGAGALLSAITAPMCVVSNGPNNKMQHSMGKLNMLHYFPDKLFSGYDIQRWKPDPALMFHAAKAMNVNVENCILVDDSVAGAQSGIDAGMEVFYFCADPHNKPIVHPKVTTFTHLSQLPELWKARGWDITA” reads “not soluble”; that for “MNEIKCPNCGEVFTVNESQYAELLSQVRTAEFDKELHDRMKQELALAEQKAMNEQQTKLAQKDQEIAQLQSQIQNFDTEKELAKKEVEQTSHEALLAKDKEVQLLENQLATLRLEHENQLQKTLSDLEKERDQVKNQLLLQEKENELSLASVKQNYEAQLKAASEQVEFYKNFKAQQSTKAIGESLEQYAESEFNKVRSFAFPNAYFEKDNKVSSRGSKGDFIFRECDENGVEIISIMFEMKNEADGTEKKHKNADFYKELDKDRREKNCEYAVLVTMLEADNDYFNTGIVDVSHEYEKMYVVRPQFFIQLIGLLRNAALNSLKYKQELALVREQNIDITHFEEDLDAFKLAFAKNYNSASTNFGKAIDEIDKAIKRMEEVKKFLTTSENQLRLANNKLEDVSVKKLTRKNPTMKAKFEALKGE”, “not soluble”.
Consider “MAHHHHHHMKAGKSGHRIYVGNIPGSMSKQEIIKAFEEFGKITEIDIKYNRNTNGTNYAFIEYESYKSAEKTIENKNGQKLKGYMLKVEYSIDKKNKEGGDLIALGGREAVSKGLLTNVRLPKNRSHYRVVVKNFPRKKIKLDGIKTFLMKAGKVIYTQLEDEITIAEYDCREGMLRAVNTLDRTMFNSTRKVYVRVLKDLPYDDSDADDSAQGCR”, for which the “soluble on expression in E. coli” value is given as “not soluble”.
In the case of “QPEDLAYVIFTSGSTGQPKGVAIEHRAARTTIDDINQRFEITDTDVVLGLSALSFDLSVWDIFGGLGAGATVVLPEEDRLRDPSYWLDLCDRHEITVWNSAPPLLEMLVDYAEIDPEAAAHALRNLRMVMLSGDWIPVTLPRRLKELAPNATVMSLGGATEASIWSICHRTSDADEHGPS”, the “soluble on expression in E. coli” value is recorded as “not soluble”.
As for “MGSDKIHHHHHHMTQTQPKFLTIYNTLYKEIQIGKYPSGHALPTEKELCARFDVSRMTLRQAIKLLAEDGIVESTRGKGHFVIPQTNAQHASSMDQFKHPLDQILLARVSMSSINYRVDLESEYTNHLFANHPSAVIAMERYYQKKDNHSKQADAFCFTFIPLNVIDTFKVNTQNEDDMKTFVEQTIYSNAYQSDLKMSITKAPRFKNHSHVFDGDTHCWLIIETLYAQTPYPIMINKWYIPQEISELTLTRIRQSDY”, the “soluble on expression in E. coli” value is reported as “not soluble”.
Regarding “MGSDKIHHHHHHMSVNETTNIKKNERSVLLPERHPNHELFICDVLEAIPKDDLASMEHPVFSLATKPDTRTLIYEHRDVKIQITPSVKGLATIFDKDLLIFCISQMIAKKNRGEPLSQNVRLHAYDLLIWTNRETSGDAYRRLIEAFERLRGTTIVTNIKADGEEITTGFGLIDSFKVVRHTATGRMSELEVRISDWMFKIIQGSQVLTLSRDYFRLRKPIERRIYEIARKHCGEQDEWRISIELLQKKTGASSHERAFKAMVRELVKCDHLPDYSVTLEDDMVIFYNRAGLSEKIPLTAFPQLNAETYNDARTVAPGYDVYYLEQEWRDMWVDTGMPLLHNPDKAFIAFCKSRAKRRPMGR”, the “soluble on expression in E. coli” value is recorded as “not soluble”.
